We go through three substances from paper PMC13218722.

Test [1] addresses LFA-1 αI-Fc fusion protein (human) (UniProt P20701). The experiment in a line: BLI; LFA-1 αI immobilised on AR2G (amine reactive) sensor at 100 ng; PfGBP-130-N as analyte at increasing concentrations; 1× PBS pH 7.4; 25°C; 800 s; 1:1 binding model; Octet K2; n≥3. For orientation: BLI is a label-free optical method that tracks binding on a fibre tip over time.
The target in test [2] is LFA-1 (CD11a/CD18) on THP-1 cells and primary human NK cells (human (endogenous in THP-1 and primary NK cells)) (UniProt P20701).
Sequence of LFA-1 (CD11a/CD18) on THP-1 cells and primary human NK cells (human (endogenous in THP-1 and primary NK cells)) (P20701 26-1170, chain 1 of 2): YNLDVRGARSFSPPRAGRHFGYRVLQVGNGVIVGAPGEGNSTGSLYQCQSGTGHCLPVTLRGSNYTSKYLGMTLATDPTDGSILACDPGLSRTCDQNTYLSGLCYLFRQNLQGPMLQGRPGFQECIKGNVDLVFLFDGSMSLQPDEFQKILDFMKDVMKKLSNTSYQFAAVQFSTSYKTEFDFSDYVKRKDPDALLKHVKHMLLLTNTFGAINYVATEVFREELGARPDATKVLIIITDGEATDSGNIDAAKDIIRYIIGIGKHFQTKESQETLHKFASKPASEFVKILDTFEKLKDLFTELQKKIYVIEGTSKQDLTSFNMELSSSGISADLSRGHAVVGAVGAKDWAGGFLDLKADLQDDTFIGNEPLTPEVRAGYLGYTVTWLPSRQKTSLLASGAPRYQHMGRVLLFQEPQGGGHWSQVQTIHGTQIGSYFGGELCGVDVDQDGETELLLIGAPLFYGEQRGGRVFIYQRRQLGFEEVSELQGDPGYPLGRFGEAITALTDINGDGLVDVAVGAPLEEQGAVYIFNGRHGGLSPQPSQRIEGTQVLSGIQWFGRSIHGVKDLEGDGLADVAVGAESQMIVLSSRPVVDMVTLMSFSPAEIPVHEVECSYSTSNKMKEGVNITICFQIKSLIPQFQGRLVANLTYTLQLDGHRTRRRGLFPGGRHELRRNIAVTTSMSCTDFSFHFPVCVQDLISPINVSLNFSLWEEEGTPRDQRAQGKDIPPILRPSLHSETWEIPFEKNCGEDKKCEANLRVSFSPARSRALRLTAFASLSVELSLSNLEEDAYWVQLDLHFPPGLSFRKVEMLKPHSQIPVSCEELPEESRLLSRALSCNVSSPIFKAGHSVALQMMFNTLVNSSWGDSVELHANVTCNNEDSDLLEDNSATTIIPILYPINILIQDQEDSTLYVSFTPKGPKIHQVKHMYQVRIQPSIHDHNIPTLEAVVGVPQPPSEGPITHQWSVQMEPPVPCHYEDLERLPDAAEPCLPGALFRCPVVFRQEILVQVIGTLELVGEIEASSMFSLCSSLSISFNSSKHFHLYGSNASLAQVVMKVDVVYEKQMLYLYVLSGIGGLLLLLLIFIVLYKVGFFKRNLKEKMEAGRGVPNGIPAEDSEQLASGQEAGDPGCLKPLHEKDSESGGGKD
Sequence of LFA-1 (CD11a/CD18) on THP-1 cells and primary human NK cells (human (endogenous in THP-1 and primary NK cells)) (P05107 23-769, chain 2 of 2, further chain): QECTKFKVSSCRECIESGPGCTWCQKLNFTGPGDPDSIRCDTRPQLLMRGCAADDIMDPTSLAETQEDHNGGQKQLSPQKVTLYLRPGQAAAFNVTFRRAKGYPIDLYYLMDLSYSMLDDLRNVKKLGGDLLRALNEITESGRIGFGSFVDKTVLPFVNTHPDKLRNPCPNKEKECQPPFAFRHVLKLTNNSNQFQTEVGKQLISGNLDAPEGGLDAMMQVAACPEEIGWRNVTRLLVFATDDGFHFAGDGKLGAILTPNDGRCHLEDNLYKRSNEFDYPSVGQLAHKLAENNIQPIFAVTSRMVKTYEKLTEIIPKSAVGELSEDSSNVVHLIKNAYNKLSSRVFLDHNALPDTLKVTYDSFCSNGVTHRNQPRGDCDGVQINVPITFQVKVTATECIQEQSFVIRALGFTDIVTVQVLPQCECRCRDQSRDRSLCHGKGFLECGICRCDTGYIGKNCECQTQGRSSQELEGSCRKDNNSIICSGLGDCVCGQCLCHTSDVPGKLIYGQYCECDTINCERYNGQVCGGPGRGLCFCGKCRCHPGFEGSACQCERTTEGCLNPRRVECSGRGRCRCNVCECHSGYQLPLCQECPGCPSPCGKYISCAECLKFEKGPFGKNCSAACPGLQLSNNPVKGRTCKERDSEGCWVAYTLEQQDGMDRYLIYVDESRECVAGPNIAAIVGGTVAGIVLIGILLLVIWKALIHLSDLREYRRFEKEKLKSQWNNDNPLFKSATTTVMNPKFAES
For test [3] the target is unchanged. Kind of test: flow cytometry on cells; THP-1 cells, with or without CD11a siRNA, fixed, incubated with 250 nM GBP130-Fc or 250 nM hIgG control in FACS buffer 2 hr; PE-Texas Red anti-human secondary antibody. Background: In flow cytometry, cells or beads pass a laser one at a time.

Sequence of LFA-1 αI-Fc fusion protein (human) (P20701 153-335): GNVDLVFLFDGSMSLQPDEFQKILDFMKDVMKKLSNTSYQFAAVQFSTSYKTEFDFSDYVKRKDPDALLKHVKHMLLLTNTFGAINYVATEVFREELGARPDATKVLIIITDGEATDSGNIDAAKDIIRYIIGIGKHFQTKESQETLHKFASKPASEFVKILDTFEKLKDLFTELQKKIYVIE
Sequence of PfGBP-130-N (N-terminal fragment of PfGBP-130, aa 69-270) (domain or fragment) (Q8I6U8 69-270): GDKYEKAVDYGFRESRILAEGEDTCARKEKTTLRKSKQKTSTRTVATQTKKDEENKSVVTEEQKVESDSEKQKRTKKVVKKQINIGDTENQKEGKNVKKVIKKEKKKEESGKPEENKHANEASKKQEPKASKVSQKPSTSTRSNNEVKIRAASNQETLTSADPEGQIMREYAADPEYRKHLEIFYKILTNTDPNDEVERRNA

By Kd is commonly meant the constant that tells how readily two partners part at equilibrium. The substance “PfGBP-130-N (N-terminal fragment of PfGBP-130, aa 69-270) (domain or fragment)” yielded a Kd in test [1] of 17 nM.
In test [2], “PfGBP-130 extracellular domain fused to the transmembrane domain of transferrin receptor (TfR-TM), on CHO K1 cells” showed a CD25 expression on primary human NK cells co-cultured 24 hr with CHO-PfGBP-ECD (2:1, Poly I:C/Lipofectamine 2000) compared to mock CHO cells, flow cytometry; reduced by anti-CD11a (HI111) of 40% and a CD69 expression on primary human NK cells co-cultured 24 hr with CHO-PfGBP-ECD (2:1, Poly I:C/Lipofectamine 2000) compared to mock CHO cells, flow cytometry; reduced by anti-CD11a (HI111) of 50%.
In test [3], “PfGBP-130 ECD-Fc (extracellular domain of PfGBP-130 fused to the Fc region of human IgG1) (Fc fusion)” showed a fold increase in binding over hIgG isotype control (THP-1 cells) of 3 fold.
